Data: publication PMC3136132

B1: 5'BC1-75 RNA, annealed (structured_RNA)
RNA: GGGGUUGGGGAUUUAGCUCAGUGGUAGAGCGCUUGCCUAGCAAGCGCAAGGCCCUGGGUUCGGUCCUCAGCUCU
B2: 3'BC1-60 RNA, annealed (structured_RNA)
RNA: AAAAAAGACAAAAUAACAAAAAGACCAAAAAAAAAACAAGGUAACUGGCACACACAACCUUU

Assays:
FMRP [1] = target: T1, FMRP (UniProt Q06787 1-632); assay: biotin-RNA affinity capture; 2 uM RNA; slightly less than full-length BC1, P=.15; 50 mM Tris-HCl pH 7.4, 2 mM MgCl2, 150 mM KCl, 1 mM EDTA, 1 mM DTT (Schaeffer buffer without tRNA, supplemented with 125 mM NaCl); SoftLink avidin resin; temper
FMRP [2] = target: T1, FMRP; assay: biotin-RNA affinity capture; 2 uM RNA; 50 mM Tris-HCl pH 7.4, 2 mM MgCl2, 150 mM KCl, 1 mM EDTA, 1 mM DTT (Schaeffer buffer without tRNA, supplemented with 125 mM NaCl); SoftLink avidin resin; temper

Binder	binding result (FMRP [1])	binding result (FMRP [2])
B1	binds	–
B2	–	no binding
